Measured values published in patent publication US7799901B2, “Modulators of the function of FAS receptors and other proteins” (Yeda Research and Development Co. Ltd., priority 1995, dated 2010).

How the values were obtained:
human FAS DD = target: T1, human FAS DD (Homo sapiens, UniProt P25445); test: Two-hybrid β-galactosidase expression filter assay in SFY526 yeast, DNA-binding domain hybrid human FAS DD; conditions: specificity test
T1 construct: the ‘death domain’ region of the intracellular domain of the human Fas-R (human Fas DD); expressed in transfected cells; host or cells: SFY526 yeast
T1 sequence (P25445 230-314 limits assumed): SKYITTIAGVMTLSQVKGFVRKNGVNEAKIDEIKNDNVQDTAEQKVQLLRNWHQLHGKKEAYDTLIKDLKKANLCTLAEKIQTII
Excerpt: (§1) To isolate proteins interacting with the intracellular domain of the FAS-R, the yeast two-hybrid system was used (Fields and Song, 1989). […] In this system, the genes for the candidate interacting proteins are cloned into separate expression vectors. In one expression vector, the sequence of the one candidate protein is cloned in phase with the sequence of the GAL4 DNA-binding domain to generate a hybrid protein with the GAL4 DNA-binding-domain, and in the other vector, the sequence of the second candidate protein is cloned in phase with the sequence of the GAL4 activation domain to generate a hybrid protein with the GAL4-activation domain. The two hybrid vectors are then co-transformed into a yeast host strain having a lacZ or HIS3 reporter gene under the control of upstream GAL4 binding sites. […]
(§2) The yeast two-hybrid test was further applied to evaluate the specificity of binding of MACH to MORT-1, in particular, to define the region in MORT-1 to which MACH binds, as well as to determine which of the MACH ORFs interacts with MORT-1, the procedures being as set forth herein above in Examples 1 and 2. Briefly, various MORT-1 and MACH constructs were prepared for testing the interaction of the proteins encoded by the Gal4 DNA-binding domain and activation domain constructs within transfected SFY526 yeast cells as assessed by the β-galactosidase expression filter assay. […]

MORT1DD (130-245) = target: T2, MORT1DD (130-245) (Homo sapiens, UniProt Q13158); test: Two-hybrid β-galactosidase expression filter assay in SFY526 yeast, DNA-binding domain hybrid MORT1DD (130-245)
T2 construct: 130-245 MORT-1; expressed in transfected cells
T2 sequence (Q13158 82-197): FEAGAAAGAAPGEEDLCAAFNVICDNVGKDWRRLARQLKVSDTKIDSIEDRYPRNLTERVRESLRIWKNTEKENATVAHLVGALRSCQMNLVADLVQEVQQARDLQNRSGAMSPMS
Excerpt: as §1, §2

[1] = Two-hybrid β-galactosidase expression filter assay in SFY526 yeast, empty pGBT9 vector; format: binding; conditions: negative control bait
Excerpt: as §1, §2

human p75 IC = target: T3, human p75 IC (Homo sapiens, UniProt P20333); test: Two-hybrid β-galactosidase expression filter assay in SFY526 yeast, DNA-binding domain hybrid human p75 IC; conditions: specificity test
T3 construct: residues 287-461 of the intracellular domain of the human p75 TNF-R; expressed in transfected cells; host or cells: SFY526 yeast
T3 sequence (P20333 287-461): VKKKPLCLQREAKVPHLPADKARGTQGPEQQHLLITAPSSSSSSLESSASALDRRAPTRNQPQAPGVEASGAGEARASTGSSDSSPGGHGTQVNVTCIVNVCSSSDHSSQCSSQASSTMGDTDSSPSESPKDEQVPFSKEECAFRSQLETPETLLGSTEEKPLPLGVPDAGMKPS
Excerpt: as §1, §2

MORT-1 = target: T4, MORT-1 (Homo sapiens, UniProt Q13158, G32V); test: Two-hybrid β-galactosidase expression filter assay in SFY526 yeast, DNA-binding domain hybrid MORT-1; design: the full-length MORT-1 cDNA was used (MORT 1); expressed in transfected cells; host or cells: SFY526 yeast; conditions: substance as activation domain hybrid
T4 sequence (Q13158 with tags, fused parts or gaps G32V): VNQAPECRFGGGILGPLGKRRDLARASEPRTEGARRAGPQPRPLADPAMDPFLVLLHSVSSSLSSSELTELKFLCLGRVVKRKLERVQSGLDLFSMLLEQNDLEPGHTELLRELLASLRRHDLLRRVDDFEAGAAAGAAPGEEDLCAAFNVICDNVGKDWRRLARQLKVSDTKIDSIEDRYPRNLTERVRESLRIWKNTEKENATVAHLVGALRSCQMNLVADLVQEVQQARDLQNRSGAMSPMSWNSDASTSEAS
Excerpt: as §1, with “sites. Only those transformed host cells (cotransformants) in which the two hybrid proteins are expressed and are capable of interacting with each other, will be capable of expressing the reporter gene.” for “sites.”
The yeast two-hybrid test was further applied to evaluate the specificity of binding of MACH to MORT-1, in particular, to define the region in MORT-1 to which MACH binds, as well as to determine which of the MACH ORFs interacts with MORT-1, the procedures being as set forth herein above in Examples 1 and 2. Briefly, various MORT-1 and MACH constructs were prepared for testing the interaction of the proteins encoded by the Gal4 DNA-binding domain and activation domain constructs within transfected SFY526 yeast cells as assessed by the β-galactosidase expression filter assay. […] In the assay, the development of color was determined, where the greater the color development, the greater the interaction between the constructs encoded by the DNA-binding domain and activation domain; Color development was depicted by symbols, where “+++” and “+” indicate the development of a strong color within 30 and 90 min. of the assay, respectively, and “−−−” indicates the lack of development of color within 24 hrs. of the assay. […]

human CD40 IC = target: T5, human CD40 IC (Homo sapiens, UniProt P25942); test: Two-hybrid β-galactosidase expression filter assay in SFY526 yeast, DNA-binding domain hybrid human CD40 IC; conditions: specificity test
T5 construct: residues 216-277 of the intracellular domain of the human CD40; expressed in transfected cells; host or cells: SFY526 yeast
T5 sequence (P25942 216-277): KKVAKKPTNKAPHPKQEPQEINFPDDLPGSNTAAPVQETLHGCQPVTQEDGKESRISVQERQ
Excerpt: as §1, §2

HeLa cells = test: Ligand-independent cytocidal effect of MACH expression in HeLa cells, neutral red uptake; format: cell-based, human; conditions: 48 hrs. after transfection, FIG. 6
Experimental: In order to test this possibility, constructs encoding MACH were prepared with a tetracycline-controlled expression vector (for details see Example 1). These constructs were used to transfect HeLa cells in which the vectors were transiently expressed. Besides the MACH constructs, other control constructs were used to evaluate the effect of transient expression on the viability of the HeLa cells to which the effect of the MACH constructs could be compared. These other constructs included MORT-1, human FAS-IC and luciferase (Luc). In addition, co-transfection of the HeLa cells was also tested by using MORT-1 and MACH constructs to determine what effects the interaction between these proteins would cause. After transfection the HeLa cells were incubated and cell viability was evaluated 48 hrs. after transfection either in the presence or the absence of tetracycline (1 μg/ml) to block expression. Cell viability was determined by the neutral red uptake assay.
The results are shown in FIG. 6, which depicts graphically the ligand-independent triggering of cytocidal effects in cells transfected with MACH in comparison to cells transfected with constructs encoding the other proteins as well as cotransfected cells (MORT1+MACH). […]

Lamin = test: Two-hybrid β-galactosidase expression filter assay in SFY526 yeast, DNA-binding domain hybrid Lamin; conditions: specificity test
Excerpt: as §1, §2

B1: MACH: MORT-1 associated CED3 homolog; full-length MACH cDNA construct; protein later renamed MACHβ1 (protein)
chain: MDFSRNLYDIGEQLDSEDLASLKFLSLDYIPQRKQEPIKDALMLFQRLQEKRMLEESNLSFLKELLFRINRLDLLITYLNTRKEEMERELQTPGRAQISAYRVMLYQISEEVSRSELRSFKFLLQEEISKCKLDDDMNLLDIFIEMEKRVILGEGKLDILKRVCAQINKSLLKIINDYEEFSKERSSSLEGSPDEFSNDFGQSLPNEKQTSGILSDHQQSQFCKSTGESAQTSQH
With B1 the “development of color (interaction with DNA-binding domain hybrid)” value (shortened to “development of color”) (human FAS DD) was “−−− (“−−−” indicates the lack of development of color within 24 hrs. of the assay)”, the “development of color” value (MORT1DD (130-245)) was “−−− (“−−−” indicates the lack of development of color within 24 hrs. of the assay)” and the “development of color” value [1] was “−−− (“−−−” indicates the lack of development of color within 24 hrs. of the assay)”. The “development of color” value (human p75 IC) was “−−− (“−−−” indicates the lack of development of color within 24 hrs. of the assay)”, the “development of color” value (MORT-1) was “+++ (“+++” and “+” indicate the development of a strong color within 30 and 90 min. of the assay, respectively)” and the “development of color” value (human CD40 IC) was “−−− (“−−−” indicates the lack of development of color within 24 hrs. of the assay)”. For the same molecule, the “cytotoxic effect of induced overexpression in HeLa cells” value (HeLa cells) was “dramatic cytotoxic effect” and the “development of color” value (Lamin) was “−−− (“−−−” indicates the lack of development of color within 24 hrs. of the assay)”.
